Reference: PMC4417512, “Role of N-linked glycosylation in the secretion and enzymatic properties of Rhizopus chinensis lipase expressed in Pichia pastoris” (Microbial Cell Factories, 2015)
Like-named read-outs stand apart in the source and are kept apart here.

How the values were obtained:
[1] = system: CCCCCCCCCCCCCCCC(=O)Oc1ccc([N+](=O)[O-])cc1; assay: purified protein; settings: pH 8.0, 40°C, emulsified substrate, Triton X-100 and gum arabic in the standard assay
[2] = system: CCCCCCCCCCCCCCCC(=O)Oc1ccc([N+](=O)[O-])cc1; assay: purified protein; format: biochemical, Rhizopus microsporus; settings: pH 8.0, 40°C, emulsified substrate, Triton X-100 and gum arabic in the standard assay

## Rhizopus chinensis lipase (RCL; proRCLCNQ): N60Q (proRCLCN60Q)
N-glycosylation at N60
  expression_or_secretion: abolishes

## r27RCLC (Rhizopus microsporus var. chinensis)
[1]
  Km: 0.34 ± 0.10 mM
  kcat: 122 ± 3.1 s⁻¹
  kcat/Km: 356000 ± 81000 M⁻¹ s⁻¹

## proRCLCNQ (Rhizopus microsporus var. chinensis; K92N/N74Q/R93Q)
[2]
  Km: 0.19 ± 0.02 mM
  kcat: 61.3 ± 2.5 s⁻¹
  kcat/Km: 311000 ± 61000 M⁻¹ s⁻¹

## proRCLCNQ (Rhizopus microsporus var. chinensis; K92N/N40Q/R93Q)
[2]; printed Km inconsistent with printed kcat/Km (tenfold), possible misprint
  Km: 2.01 ± 0.12 mM

## Rhizopus chinensis lipase (RCL; proRCLCNQ): N14Q (proRCLCN14Q)
N-glycosylation at N14
  enzymatic_activity: decreases, kcat 60.70 to 24.82 s-1; Km 0.20 to 2.01 mM; kcat/Km 2.92*10^5 to 1.22*10^5 M-1 s-1
  expression_or_secretion: no change
  stability_or_folding: decreases
  structure_or_conformation: no change

## Rhizopus chinensis lipase (RCL; proRCLCNQ): N48Q (proRCLCN48Q)
N-glycosylation at N48
  enzymatic_activity: no change, kcat 60.70 vs 61.33 s-1; Km 0.20 vs 0.19 mM; kcat/Km 2.92*10^5 vs 3.11*10^5 M-1 s-1
  expression_or_secretion: no change
  stability_or_folding: no change, about 70% residual activity after 1 h at 50 °C for both

## proRCLCNQ (Rhizopus microsporus var. chinensis; K92N/R93Q)
[2]
  Km: 0.20 ± 0.04 mM
  kcat: 60.7 ± 2.2 s⁻¹
  kcat/Km: 292000 ± 55000 M⁻¹ s⁻¹

## Rhizopus chinensis lipase (RCL; proRCLCNQ): N14Q (proRCLCN14Q), 90% (v/v) organic solvents, 24 h
N-glycosylation at N14
  stability_or_folding: decreases, relative activity e.g. isooctane 78 ± 3.5% to 70 ± 3.0%; DMSO 58 ± 4.0% to 51 ± 4.2%

## Rhizopus chinensis lipase (RCL; proRCLCNQ): N60Q (proRCLCN60Q), mRNA level by RT-PCR
N-glycosylation at N60
  other: no change
